Series [1] addresses T1, FL-Nsp1 (non-structural protein 1) (SARS-CoV-2, UniProt P0DTD1 1-180). Description: NMR.
The target of series [2] is T1, FL-Nsp1 (non-structural protein 1). The series can be described thus: NMR. This is another data set of the same source.

Where two headings read alike, the source gives them in different places.

The source of these data is PMC9817231.

B1: SL1 (structured_RNA)
RNA: GGGUUUAUACCUUCCCAGGUAACAAACCC
For the molecule B1, the binding result in series [1] was “no binding”.

B2: SL1-4 (structured_RNA)
RNA: GGUUUAUACCUUCCCAGGUAACAAACCAACCAACUUUCGAUCUCUUGUAGAUCUGUUCUCUAAACGAACUUUAAAAUCUGUGUGGCUGUCACUCGGCUGCAUGCUUAGUGCACUCACGC
For B2, the binding result in series [2] is on record as “no binding”.
